IC50 data for one molecule are collected here from patent US20240173377A1 (published 2024).

Targets include HLA DRB1*0301 (human); HLA DRB1*1301 (human); HLA DRB1*1101 (human); HLA DRB1*0101 (human); HLA DRB1*0401 (human); HLA DRB1*0701 (human); HLA DRB1*1501 (human).
Experiment in all cases: HLA class II competition binding assay

B1: SEQ ID NO 114 (peptide)
peptide: EEQYNSTYTVVSVLTVLHQD
One may read the IC50 as the concentration that gives 50% inhibition. As for B1, the IC50 in the experiment with HLA DRB1*0301 was determined as 1570 nM; with HLA DRB1*1301, 1860 nM; in the experiment with HLA DRB1*1101, 84 nM; with HLA DRB1*0101, 19 nM; with HLA DRB1*0401, 1210 nM; in the experiment with HLA DRB1*0701, 115 nM. The molecule further gave an IC50 with HLA DRB1*1501 of 2110 nM.
